Our source for the Kd values is paper PMC5760745, “Nuclear, Cytosolic, and Surface-Localized Poly(A)-Binding Proteins of Plasmodium yoelii”.

Data set [1] has as its target T1, PyPABP1 (Plasmodium yoelii 17XNL, UniProt V7PUC0 1-841).
T1 sequence: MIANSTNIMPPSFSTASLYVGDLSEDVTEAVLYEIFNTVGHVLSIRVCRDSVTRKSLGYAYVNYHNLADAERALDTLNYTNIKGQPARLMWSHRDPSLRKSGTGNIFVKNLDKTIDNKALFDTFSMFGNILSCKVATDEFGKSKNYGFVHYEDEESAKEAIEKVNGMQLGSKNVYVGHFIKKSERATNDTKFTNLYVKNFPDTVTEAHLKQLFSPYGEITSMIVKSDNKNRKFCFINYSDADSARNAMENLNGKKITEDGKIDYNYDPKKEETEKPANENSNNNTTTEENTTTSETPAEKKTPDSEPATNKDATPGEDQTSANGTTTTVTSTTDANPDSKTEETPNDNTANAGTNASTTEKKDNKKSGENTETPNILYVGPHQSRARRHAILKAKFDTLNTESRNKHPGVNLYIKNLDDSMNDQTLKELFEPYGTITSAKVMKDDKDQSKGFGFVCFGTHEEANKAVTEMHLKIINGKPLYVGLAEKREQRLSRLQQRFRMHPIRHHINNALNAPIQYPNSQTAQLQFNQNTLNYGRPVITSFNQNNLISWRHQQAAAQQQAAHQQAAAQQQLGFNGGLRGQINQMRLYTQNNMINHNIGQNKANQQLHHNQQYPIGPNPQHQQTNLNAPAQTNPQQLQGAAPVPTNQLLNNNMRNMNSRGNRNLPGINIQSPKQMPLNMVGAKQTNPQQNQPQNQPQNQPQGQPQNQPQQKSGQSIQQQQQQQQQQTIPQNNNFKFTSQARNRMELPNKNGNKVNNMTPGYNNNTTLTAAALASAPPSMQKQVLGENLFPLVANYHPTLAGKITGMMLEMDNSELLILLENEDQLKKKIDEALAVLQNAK
The data set can be described thus: ITC; 5 mM Mg2+; second of two protein preparations; EMSA/FP: 10 mM Tris-Cl pH 7.5, 5 mM MgCl2, 55 mM KCl, 2 ug tRNA, 1 mM DTT, 0.5 U/ul SUPERase-In, 2.5% glycerol, RT 20 min; ITC: 10 mM HEPES pH 7.5, 100 mM KCl. Conditions: protein: recombinant; tags: N-terminal GST (thrombin-cleavable), C-terminal 6xHis (TEV-cleavable); single strand. For orientation: In ITC the heat of successive injections is recorded.

The target of data set [2] is T1, PyPABP1. Put plainly: ITC; 5 mM Mg2+; first of two protein preparations; EMSA/FP: 10 mM Tris-Cl pH 7.5, 5 mM MgCl2, 55 mM KCl, 2 ug tRNA, 1 mM DTT, 0.5 U/ul SUPERase-In, 2.5% glycerol, RT 20 min; ITC: 10 mM HEPES pH 7.5, 100 mM KCl. Conditions: protein: recombinant; tags: N-terminal GST (thrombin-cleavable), C-terminal 6xHis (TEV-cleavable); single strand.
In data set [3] the target is T2, PyPABP2 (Plasmodium yoelii, UniProt UPI0004EF7F20 1-199).
T2 sequence: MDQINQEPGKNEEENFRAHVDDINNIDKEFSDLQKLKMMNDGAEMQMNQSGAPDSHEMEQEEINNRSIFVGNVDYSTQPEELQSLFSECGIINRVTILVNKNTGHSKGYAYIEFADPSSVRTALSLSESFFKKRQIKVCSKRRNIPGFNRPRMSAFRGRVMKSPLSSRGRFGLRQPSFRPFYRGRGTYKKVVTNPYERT
Put plainly: EMSA; apparent Kd; excess tRNA, 5 mM Mg2+; EMSA/FP: 10 mM Tris-Cl pH 7.5, 5 mM MgCl2, 55 mM KCl, 2 ug tRNA, 1 mM DTT, 0.5 U/ul SUPERase-In, 2.5% glycerol, RT 20 min; ITC: 10 mM HEPES pH 7.5, 100 mM KCl. The following applies: protein: recombinant; tags: N-terminal GST (purified via GST); vector pSL0220 also encodes C-terminal 6xHis; single strand. On the technique in general: In EMSA bound probe runs differently from free probe, usually more slowly.

The target of data set [4] is T1, PyPABP1. The description is as above. Conditions: protein: recombinant; tags: N-terminal GST (thrombin-cleavable), C-terminal 6xHis (TEV-cleavable); single strand.
Data set [5] concerns the target T2, PyPABP2. Put plainly: fluorescence polarization; apparent Kd; excess tRNA, 5 mM Mg2+; EMSA/FP: 10 mM Tris-Cl pH 7.5, 5 mM MgCl2, 55 mM KCl, 2 ug tRNA, 1 mM DTT, 0.5 U/ul SUPERase-In, 2.5% glycerol, RT 20 min; ITC: 10 mM HEPES pH 7.5, 100 mM KCl. Conditions: protein: recombinant; tags: N-terminal GST (purified via GST); vector pSL0220 also encodes C-terminal 6xHis; single strand. Background: Polarisation of emitted light reports the rotation of a fluorescent probe.

The target in data set [6] is T1, PyPABP1. The data set is described as above. The following applies: protein: recombinant; tags: N-terminal GST (thrombin-cleavable), C-terminal 6xHis (TEV-cleavable); single strand.

On to AAAAAAAAAAAAAAAAAAAAAAAAA (ssRNA) [poly(A) 25-mer], for which the Kd amounted to 48 nM with PyPABP1 [1] and 33 nM with PyPABP1 [2].
As for AAAAAAAAAAAAAAAAAAAAAAAAA (ssRNA) [biotin-poly(A) 25-mer], the Kd came to 108 nM with PyPABP2 [3] and 185 nM with PyPABP1 [4].
AAAAAAAAAAAAAAAAAAAAAAAAA (ssRNA) [fluorescein-poly(A) 25-mer]: the Kd turned out to be 104 nM in the data set with PyPABP2 [5] and 8 nM with PyPABP1 [6].
